From patent publication US20150182631A1, “SYSTEM FOR […]-BASED ACTIVE INGREDIENTS” (Centre National De La Recherche Scientifique-CNRS, priority 2012, published 2015)

How the values were obtained:
Format in all cases: physicochemical
[1] = FRET kinetics of subunit exchange (tetramer dissociation)
Method: The speed of the exchange of subunits was measured by the same technique. The reaction is initiated by mixing the same volume of XCL-RITC (1 μM) and of XCL-FITC (1 μM) at 25° C. in 50 mM of phosphate buffer, 100 mM NaCl, pH 8.5. The excitation is carried out at 468 nm and the fluorescence emission at 580 nm is recorded every 0.5 seconds. The fluorescence intensity is normalised by using the equation: […]
where F(t) represents the experimental fluorescence in the time considered, F0 the value of the initial fluorescence, and F∞ the value of the final fluorescence when the state of equilibrium is reached. The kinetic data was modelled with the GOSA software (Czaplicki et al. (2006)). The best model was obtained for a double exponential of equation:
F=1−[a×e^−k^1^t+(1−a)×e^−k^2^t]
where: a represents the proportion of molecules at slow dissociation, k1 the kinetic constant of the slow dissociation and k2 the kinetic constant of the fast dissociation.
The dissociation kinetic of the tetramer was studied by mixing XCL-FITC and XCL-RITC and by measuring the fluorescence emission intensity at 580 nm as a function of time (FIG. 6).
The increase in the fluorescence intensity and therefore the effectiveness of the transfer between the fluorescein and the rhodamine are the result of two successive phenomena: firstly the dissociation of the tetramers into dimers and secondly their reassociation. Considering the shape of the curve (FIG. 6), no lag time is observed at the beginning of the kinetics which implies that the speed of reassociation is much faster than the speed of dissociation. It can therefore be considered that the speed of reassociation is negligible in this case. The kinetic data obtained was modelled using the GOSA software. The most suitable model for describing the phenomenon observed is a double exponential growth with two dissociation reactions that have difference speeds: […]

[2] = Thermal dissociation by tryptophan fluorescence
From the text: The thermal dissociation of XCL was followed by measuring the intrinsic fluorescence of the tryptophans. Each monomer of XCL contains 3 tryptophan residues: one in a hydrophobic cavity (Trp 77) and two located on the same interface between two monomers (Trp 27 and Trp 35). The inventors used these latter two Trp as probes for the quaternary structure of XCL, by taking advantage of their position in the structure of the tetramer. In order to increase the sensitivity of the measurement, the ratio of the fluorescence intensities 346 nm/330 nm was measured according to the temperature (FIG. 8).

[3] = Thermal dissociation by NMR DOSY
Method: The thermal dissociation was also followed by DOSY experiments (Diffusion Ordered SpectrometrY). The ratio of the hydrodynamic radius of XCL and of the dioxane were measured according to the temperature (FIG. 9).
If the tetramer is dissociated by increasing the temperature, a decrease in this ratio is expected and therefore of the hydrodynamic radius of XCL. […] After 50° C., the protein sample precipitates out as already described in the fluorescence experiments with tryptophan.

[4] = FRET on dilution, tetramer equilibrium
Method: The mixture of FITC-XCL and RITC-XCL was diluted to various concentrations and incubated for 1 hour at ambient temperature. The fluorescence spectrum was recorded with a light excitation at 468 nm. In order to substantially determine the decrease in the energy transfer and normalise the intensity of the fluorescence, a ratio I580/I520 was calculated for each concentration and taken according to the concentration in XCL (FIG. 4). […] Evidently, the titration curve is not complete as long as the saturation is not reached for the points with the strongest concentration. Due to the solubility limit of XCL and of the labelling protocol, the concentrations in protein cannot exceed 10 μM in this experiment.

[5] = Size exclusion chromatography at variable concentration, tetramer equilibrium
Method: The size exclusion chromatography experiments were carried out on a GE-Healthcare Superose 12 PC 3.2/30 column. The columns are pre-balanced in the buffer tested, namely phosphate buffer 50 mM, 100 mM NaCl, pH7.2 or pH 4.4 in the absence or in the presence of 0.003% of SDS. The flow rate is 0.5 mL/min. The BSA and the RNase A are used as a size marker.
In order to confirm the data obtained in FRET, the displacement of the balance was evaluated by gel exclusion chromatography. Bovine Serum Albumin (BSA) and ribonuclease A were used to calibrate the column. Elution volumes of 12.6 ml and of 15.5 ml were obtained respectively. At a strong concentration (here 30 μM), XCL has an elution volume of 13.2 ml close to the elution volume of BSA as expected for tetrameric species. […] However, it was shown by digital simulation that according to the association rate, the rate of dissociation, the flow rate and separation characteristics of the column, two populations of molecules that are exchanging could lead to a single peak via size exclusion chromatography (Yu et al., (2006)). The inventors carried out several injections by using variable concentrations of XCL and observed that indeed a single peak was obtained. However this peak is displaced to longer elution volumes as the concentration decreases, indicating a smaller molecular weight.

[6] = SDS-PAGE of tetramer and disulphide bridge stability; settings: 2% of SDS, not heated before deposit
Method: The clone A38C was obtained by directed mutagenesis by using the XCL plasmid as a matrix and the protein produced and purified by using the same protocol as that used to produce XCL (Trigueros et al. (2003)). A yield of 25 mg of purified protein per litre of culture was obtained. The last part of the protocol consisted in a step of oxidation for 12 hours in the presence of 10 mM of oxidised glutathione. This step is required in order to produce disulphide bridges between the monomers. The forming of these covalent bonds was verified by SDS-PAGE. Two SDS-PAGE were prepared. Beta-mercaptoethanol was added to the samples in the first gel while beta-mercaptoethanol was not added to the second gel. When XCL is heated to 95° C. 5 min before the deposit, a single band is observed with a molecular weight slightly greater than 20 kDa on the two gels. This band corresponds to the species in monomer form.
A variant T12C was produced in the same manner as A38C by directed mutagenesis by using the XCL plasmid as a matrix. By using the same protocol, 10 mg of protein per litre of culture were produced. The oxidation rate of the variant T12C was sought by using the same method by SDS-PAGE as for A38C. These rates were compared with those obtained with the variant A38C. Several oxidative conditions were tested with different concentrations of reduced glutathione. […]

[7] = 25° C., pH 8.5, double exponential model

B1: XCL: Xerocomus chrysenteron lectin, fungal sporocarp lectin forming a tetramer with central cavity, SEQ ID NO: 1 (protein)
chain: MSYSITLRVYQTNRDRGYFSIVEKTVWHFANGGTWSEANGAHTLTQGGSGTSGVLRFLSTKGERITVAVGVHNYKRWCDVVTGLKPDETALVINPQYYNNGGRDYVREKQLAEYSVTSAIGTKVEVVYTVAEGNNLEANVIFS
modifications: Xerocomus chrysenteron
- a: proportion of molecules engaged in the slow reaction [1, 7]: 0.39
- k1: kinetic constant of the slowest dissociation reaction [1, 7]: 0.72 min⁻¹
- k2: kinetic constant of the fastest dissociation reaction [1, 7]: 2.52 min⁻¹
- time until balance of fluorescence intensity at 580 nm is reached ([1]; mixing XCL-FITC and XCL-RITC): more than 300 seconds
- temperature before which no modification of the 346 nm/330 nm Trp fluorescence ratio was observed (lectin remained tetrameric) [2]: < 50 °C
- temperature beyond which the protein precipitates out (visual analysis after heating) ([2]; precipitates in tetrameric form): > 45 °C
- temperature after which the protein sample precipitates out ([3]; DOSY): > 50 °C
- hydrodynamic radius versus temperature ([3]; ratio of hydrodynamic radius of XCL and dioxane): no transition in the hydrodynamic radius is observed
- concentration of the transition in energy transfer intensity (I580/I520) ([4]; 1 hour at ambient temperature): close to the micromolar
- maximum protein concentration (solubility limit and labelling protocol) ([4]; labelled XCL in FRET experiment): ≤ 10 µM
- concentration of the transition in elution volume [5]: close to the micromolar
- oligomeric form on SDS-PAGE [6]: remained in tetrameric form
